The record followed here is publication PMC3266958 (Oncogene, 2011).

The target in this assay is purified bovine calmodulin (bovine, UniProt P62157 1-149). The experiment in a line: ITC.

B1: FBXL2 (ITC with CaM, data not shown) (natural protein)
chain: MVFSNNDEGLINKKLPKELLLRIFSFLDIVTLCRCAQISKAWNILALDGSNWQRIDLFNFQTDVEGRVVENISKRCGGFLRKLSLRGCIGVGDSSLKTFAQNCRNIEHLNLNGCTKITDSTCYSLSRFCSKLKHLDLTSCVSITNSSLKGISEGCRNLEYLNLSWCDQITKDGIEALVRGCRGLKALLLRGCTQLEDEALKHIQNYCHELVSLNLQSCSRITDEGVVQICRGCHRLQALCLSGCSNLTDASLTALGLNCPRLQILEAARCSHLTDAGFTLLARNCHELEKMDLEECILITDSTLIQLSIHCPKLQALSLSHCELITDDGILHLSNSTCGHERLRVLELDNCLLITDVALEHLENCRGLERLELYDCQQVTRAGIKRMRAQLPHVKVHAYFAPVTPPTAVAGSGQRLCRCCVIL
In the case of B1, the Kd was 810 nM.
